The values below come from patent US20240092919A1 (Ablynx, published 2024).

B1: T017000440 (VHH)
VHH: EVQLVESGGGVVQPGGSLRLSCVASWDVHKLNFYGWYRQAPGKEREKVAHISIGDQTDYADSAKGRFTISRDESKNMVYLQMNSLRPEDTALYFCRAMSKIWPYDYWGQGTLVTVSS
B2: T017000531 (VHH)
VHH: EVQLVESGGGVVQPGGSLRLSCVASGSVHKINFLGWYRQAPGKEREKVAHISIGDQTDYADSAKGRFTISRDESKNMVYLQMNSLRPEDTALYFCRAMSRIWPYDWWGQGTLVTVSS
B3: T017000498 (VHH)
VHH: EVQLVESGGGVVQPGGSLRLSCVASGAVHKINFYGWYRQAPGKEREKVAHISIGDQTDYADSAKGRFTISRDESKNMVYLQMNSLRPEDTALYFCRAMSRIWPYDWWGQGTLVTVSS
B4: T017000509 (VHH)
VHH: EVQLVESGGGVVQPGGSLRLSCVASGAVHKINFLGWYRQAPGKEREKVAHISIGDQTDYADSAKGRFTISRDESKNMVYLQMNSLRPEDTALYFCRAMSKIWPYDWWGQGTLVTVSS
B5: T017000550 (VHH)
VHH: EVQLVESGGGVVQPGGSLRLSCVASGSVHQINFLGWYRQAPGKEREKVAHISIGDQTDYADSAKGRFTISRDESKNMVYLQMNSLRPEDTALYFCRAMSRIYPYDWWGQGTLVTVSS
B6: T017000547 (VHH)
VHH: EVQLVESGGGVVQPGGSLRLSCVASGAVHKLNFYGWYRQAPGKEREKVAHISIGDQTDYADSAKGRFTISRDESKNMVYLQMNSLRPEDTALYFCRAFSRIWPYDYWGQGTLVTVSS
B7: T017000578 (VHH)
VHH: EVQLVESGGGVVQPGGSLRLSCVASYDVHQLNFYGWYRQAPGKEREKVAHISIGDQTDYADSAKGRFTISRDESKNMVYLQMNSLRPEDTALYFCRAMSRIWPYDYWGQGTLVTVSS
B8: T017000530 (VHH)
VHH: EVQLVESGGGVVQPGGSLRLSCVASGAVHKLNFLGWYRQAPGKEREKVAHISIGDQTDYADSAKDRFTISRDESKNMVYLQMNSLRPEDTALYFCRAMSRIYPYDYWGQGTLVTVSS
B9: T017000539 (VHH)
VHH: EVQLVESGGGVVQPGGSLRLSCVASGYVHKINFYGWYRQAPGKEREKVAHISIGDQTDYADSAKGRFTISRDESKNMVYLQMNSLRPEDTALYFCRAMSRIWPYDWWGQGTLVTVSS
B10: T017000577 (VHH)
VHH: EVQLVESGGGVVQPGGSLRLSCVASWDVHQINFLGWYRQAPGKEREKVAHISIGDQTDYADSAKGRFTISRDESKNMVYLQMNSLRPEDTALYFCRAMSRIYPYDYWGQGTLVTVSS
B11: T017000499 (VHH)
VHH: EVQLVESGGGVVQPGGSLRLSCVASGYVHKLNFLGWYRQAPGKEREKVAHISIGDQTDYADSAKGRFTISRDESKNMVYLQMNSLRPEDTALYFCRAMSRIWPYDYWGQGTLVTVSS
B12: T017000505 (VHH)
VHH: EVQLVESGGGVVQPGGSLRLSCVASGDVHQLNFLGWYRQAPGKEREKVAHISIGDQTDYADSAKGRFTISRDESKNMVYLQMNSLRPEDTALYFCRAFSKIYPYDYWGQGTLVTVSS
B13: T017000515 (VHH)
VHH: EVQLVESGGGVVQPGGSLRLSCVASGAVHKINFLGWYRQAPGKEREKVAHISIGDQTDYADSAKGRFTISRDESKNMVYLQMNSLRPEDTALYFCRAMSRIWPYDYWGQGTLVTVSS
B14: T017000566 (VHH)
VHH: EVQLVESGGGVVQPGGSLRLSCVASGYVHKLNFLGWYRQAPGKEREKVAHISIGDQTDYADSAKGRFTISRDESKNMVYLQMNSLRPEDTALYFCRAMSRIWPYDWWGQGTLVTVSS
B15: T017000473 (VHH)
VHH: EVQLVESGGGVVQPGGSLRLSCVASGYVHQINFYGWYRQAPGKEREKVAHISIGDQTDYADSAKGRFTISRDESKNMVYLQMNSLRPEDTALYFCRAMSRIYPYDYWGQGTLVTVSS
B16: T017000442 (VHH)
VHH: EVQLVESGGGVVQPGGSLRLSCVASGYVHKLNFYGWYRQAPGKEREKVAHISIGDQTDYADSAKGRFTISRDESKNMVYLQMNSLRPEDTALYFCRAMSRIYPYDYWGQGTLVTVSS
B17: T017000554 (VHH)
VHH: EVQLVESGGGVVQPGGSLRLSCVASYDVHQINFLGWYRQAPGKEREKVAHISIGDQTDYADSAKGRFTISRDESKNMVYLQMNSLRPEDTALYFCRAMSKIYPYDYWGQGTLVTVSS
B18: T017000588 (VHH)
VHH: EVQLVESGGGVVQPGGSLRLSCVASGAVHKINFYGWYRQAPGKEREKVAHISIGDQTDYADSAKGRFTISRDESKNMVYLQMNSLRPEDTALYFCRAMSKIWPYDYWGQGTLVTVSS
B19: T017000538 (VHH)
VHH: EVQLVESGGGVVQPGGSLRLSCVASGYVHKLNFYGWYRQAPGKEREKVAHISIGDQTDYADSAKGRFTISRDESKNMVYLQMNSLRPEDTALYFCRAMSRIWPYDYWGQGTLVTVSS
B20: T017000518 (VHH)
VHH: EVQLVESGGGVVQPGGSLRLSCVASYSVHQLNFLGWYRQAPGKEREKVAHISIGDQTDYADSAKGRFTISRDESKNMVYLQMNSLRPEDTALYFCRAMSRIWPYDYWGQGTLVTVSS
B21: T017000521 (VHH)
VHH: EVQLVESGGGVVQPGGSLRLSCVASGSVHQLNFYGWYRQAPGKEREKVAHISIGDQTDYADSAKGRFTISRDESKNMVYLQMNSLRPEDTALYFCRAMSRIWPYDYWGQGTLVTVSS
B22: T017000461 (VHH)
VHH: EVQLVESGGGVVQPGGSLRLSCVASGDVHQINFYGWYRQAPGKEREKVAHISIGDQTDYADSAKGRFTISRDESKNMVYLQMNSLRPEDTALYFCRAMSRIWPYDYWGQGTLVTVSS
B23: T017000443 (VHH)
VHH: EVQLVESGGGVVQPGGSLRLSCVASWDVHQINFYGWYRQAPGKEREKVAHISIGDQTDYADSAKGRFTISRDESKNMVYLQMNSLRPEDTALYFCRAMSKIYPYDYWGQGTLVTVSS
B24: T017000450 (VHH)
VHH: EVQLVESGGGVVQPGGSLRLSCVASGYVHQINFLGWYRQAPGKEREKVAHISIGDQTDYADSAKGRFTISRDESKNMVYLQMNSLRPEDTALYFCRAMSRIWPYDYWGQGTLVTVSS

For the experiment, the target named is T1, Cynomolgus TCR(AEA41865/AEA41866)-zipper protein (cynomolgus monkey).
T1 construct: also called cyTCR-zipper protein; cynoTCR zipper
T1 TCR alpha: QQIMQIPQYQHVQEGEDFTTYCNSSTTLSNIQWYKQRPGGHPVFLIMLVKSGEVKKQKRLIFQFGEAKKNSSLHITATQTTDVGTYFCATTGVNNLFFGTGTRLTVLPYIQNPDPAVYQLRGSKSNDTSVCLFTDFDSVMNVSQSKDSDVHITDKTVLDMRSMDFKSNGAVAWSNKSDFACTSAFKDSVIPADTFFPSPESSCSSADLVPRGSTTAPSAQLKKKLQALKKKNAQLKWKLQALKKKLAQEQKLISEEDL
T1 TCR beta: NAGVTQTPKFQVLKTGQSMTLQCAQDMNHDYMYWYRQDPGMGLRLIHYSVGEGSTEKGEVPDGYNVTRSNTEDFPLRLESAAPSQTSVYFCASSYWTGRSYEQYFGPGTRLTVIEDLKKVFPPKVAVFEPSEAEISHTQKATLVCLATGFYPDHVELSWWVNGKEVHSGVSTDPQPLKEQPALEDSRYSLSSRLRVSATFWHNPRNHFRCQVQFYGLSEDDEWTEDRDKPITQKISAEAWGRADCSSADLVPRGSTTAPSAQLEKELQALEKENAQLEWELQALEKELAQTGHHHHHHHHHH
Kind of experiment: SPR ProteOn off-rate screen.
Text: Unique ISVD clones, i.e. clones with a unique sequence, were subsequently selected and screened to determine their off-rate. To this purpose, the ISVD containing periplasmic extracts were screened on huTCR-zipper and cyTCR-zipper protein by SPR on a ProteOn XPR36 instrument. The zipper proteins were immobilized on a GLC sensor chip (between 4300 and 5100RU) via amine coupling chemistry, using EDC/sulfo-NHS for activation of the carboxyl groups on the chip surface (running buffer: HBS-EP+, pH7.4). Periplasmic extracts were injected at 1/10 dilution for 2 min (at a flow rate of 45 μL/min) and dissociation was followed for 900 s. A pulse of 100 s of 3 M MgCl2 at 45 μL/min was used for regeneration. […] Processed sensorgrams were fitted with the Langmuir model (1:1 interaction) using ProteOn Manager 3.1.0 (Version 3.1.0.6) software.
By koff is commonly meant a measure of how fast the partners let go of each other. A higher koff goes with fast dissociation. As to B1, the koff came out at 0.000346 s⁻¹.

B2: the koff amounted to 0.00232 s⁻¹. This koff lies about 6.7-fold higher than the previous one.

Molecule B3 had a koff of 0.00223 s⁻¹.

The molecule B4 came in with a koff of 0.000609 s⁻¹.

Turning to B5, the koff was 0.0095 s⁻¹.

Turning to B6, the koff stood at 0.00156 s⁻¹.

As for B7, the koff came to 0.00349 s⁻¹.

The molecule B8 had a koff of 0.00182 s⁻¹.

In turn, B9 came in with a koff of 0.00151 s⁻¹.

In the case of B10, the koff was 0.00188 s⁻¹.

B11 came in with a koff of 0.00106 s⁻¹. This koff is about 1.8-fold lower than that of the molecule before.

Consider B12, for which the koff stood at 0.00143 s⁻¹.

In turn, B13 returned a koff of 0.00126 s⁻¹.

B14 had an off-rate (koff) of 0.00164 s⁻¹.

B15 showed a koff of 0.00238 s⁻¹.

Take B16: the koff amounted to 0.00146 s⁻¹.

Regarding B17, the koff turned out to be 0.000767 s⁻¹.

Turning to B18, the koff stood at 0.000158 s⁻¹.

B19 yielded a koff of 0.000766 s⁻¹.

B20 came in with a koff of 0.0268 s⁻¹.

Consider B21, for which the koff came out at 0.00275 s⁻¹.

The molecule B22 showed a koff of 0.00206 s⁻¹.

In the case of B23, the koff amounted to 0.000209 s⁻¹.

With B24, the koff came out at 0.0017 s⁻¹.
